Reference: patent US20200199213A1 (Eli Lilly, published 2020)

T1: LPL (lipoprotein lipase) on LPL-expressing cells of Example 1
T1 sequence (P06858 28-475, species assumed, looked up): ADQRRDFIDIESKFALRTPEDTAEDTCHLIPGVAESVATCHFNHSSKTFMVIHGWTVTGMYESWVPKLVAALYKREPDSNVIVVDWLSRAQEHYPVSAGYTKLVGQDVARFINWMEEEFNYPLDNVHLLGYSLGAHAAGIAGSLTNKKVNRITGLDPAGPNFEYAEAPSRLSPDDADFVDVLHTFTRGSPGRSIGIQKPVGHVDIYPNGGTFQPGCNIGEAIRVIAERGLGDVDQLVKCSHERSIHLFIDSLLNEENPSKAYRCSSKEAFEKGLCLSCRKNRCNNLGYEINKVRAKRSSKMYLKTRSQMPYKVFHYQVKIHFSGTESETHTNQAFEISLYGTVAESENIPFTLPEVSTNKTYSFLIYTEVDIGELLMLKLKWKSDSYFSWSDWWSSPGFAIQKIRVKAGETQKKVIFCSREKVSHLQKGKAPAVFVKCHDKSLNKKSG

T2: human ANGPTL8 (human, UniProt Q6UXH0 22-198)
T2 construct: Biotinylated in the ELISA assays; also called hANGPTL8; free ANGPTL8
T2 sequence: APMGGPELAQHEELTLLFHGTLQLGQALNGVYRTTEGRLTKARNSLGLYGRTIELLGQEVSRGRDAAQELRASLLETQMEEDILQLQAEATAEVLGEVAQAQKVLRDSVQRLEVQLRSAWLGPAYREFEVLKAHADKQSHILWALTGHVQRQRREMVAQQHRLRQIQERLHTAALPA

T3: mouse ANGPTL3/8 complex (mouse, UniProt Q9R182 17-455; Q8R1L8 16-198, limits assumed)
T3 sequence (looked up) 1: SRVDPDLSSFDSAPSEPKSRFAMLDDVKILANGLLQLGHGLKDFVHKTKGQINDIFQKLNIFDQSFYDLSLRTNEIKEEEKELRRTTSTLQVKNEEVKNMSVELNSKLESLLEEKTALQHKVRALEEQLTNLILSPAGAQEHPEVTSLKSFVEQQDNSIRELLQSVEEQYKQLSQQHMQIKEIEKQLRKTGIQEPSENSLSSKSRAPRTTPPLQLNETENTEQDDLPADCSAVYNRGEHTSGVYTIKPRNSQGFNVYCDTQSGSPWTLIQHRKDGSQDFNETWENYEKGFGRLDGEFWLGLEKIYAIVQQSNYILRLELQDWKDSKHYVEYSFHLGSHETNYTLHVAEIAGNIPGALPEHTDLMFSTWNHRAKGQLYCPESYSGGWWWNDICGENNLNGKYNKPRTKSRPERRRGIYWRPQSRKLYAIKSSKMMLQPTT
T3 sequence (looked up) 2: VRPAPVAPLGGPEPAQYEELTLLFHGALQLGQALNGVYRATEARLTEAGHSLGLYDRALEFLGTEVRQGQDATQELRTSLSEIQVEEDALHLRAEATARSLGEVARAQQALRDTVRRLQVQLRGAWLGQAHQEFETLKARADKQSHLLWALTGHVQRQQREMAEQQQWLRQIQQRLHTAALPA

T4: cynomolgus LPL (cynomolgus, UniProt A0A7N9D851 28-475)
T4 sequence: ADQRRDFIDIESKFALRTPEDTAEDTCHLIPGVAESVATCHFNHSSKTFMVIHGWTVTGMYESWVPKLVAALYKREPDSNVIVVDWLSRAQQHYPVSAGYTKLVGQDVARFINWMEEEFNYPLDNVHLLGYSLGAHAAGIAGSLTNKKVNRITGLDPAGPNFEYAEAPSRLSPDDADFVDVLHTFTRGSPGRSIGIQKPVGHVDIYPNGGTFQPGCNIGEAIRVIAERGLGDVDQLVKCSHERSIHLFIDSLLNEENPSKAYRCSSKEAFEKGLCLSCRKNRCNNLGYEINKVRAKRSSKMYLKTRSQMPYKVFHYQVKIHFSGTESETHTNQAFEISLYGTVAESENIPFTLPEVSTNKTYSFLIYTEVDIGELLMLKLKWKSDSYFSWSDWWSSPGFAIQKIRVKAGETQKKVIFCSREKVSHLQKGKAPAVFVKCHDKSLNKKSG

T5: human LPL (human, UniProt P06858 28-475)
T5 sequence (looked up): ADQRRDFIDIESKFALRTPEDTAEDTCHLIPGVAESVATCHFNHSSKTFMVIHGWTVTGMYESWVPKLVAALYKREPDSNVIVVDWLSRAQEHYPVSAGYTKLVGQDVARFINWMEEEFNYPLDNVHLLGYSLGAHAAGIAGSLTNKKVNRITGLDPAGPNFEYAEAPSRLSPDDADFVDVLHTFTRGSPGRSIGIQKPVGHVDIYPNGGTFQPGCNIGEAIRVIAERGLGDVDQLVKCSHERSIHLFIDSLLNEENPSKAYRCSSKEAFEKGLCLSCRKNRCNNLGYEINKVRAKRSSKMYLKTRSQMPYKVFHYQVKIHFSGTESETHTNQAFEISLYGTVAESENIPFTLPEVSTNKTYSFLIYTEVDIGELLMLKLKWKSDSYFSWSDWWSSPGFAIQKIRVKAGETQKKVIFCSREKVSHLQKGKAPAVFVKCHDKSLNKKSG

B1: human ANGPTL3 (other)
chain: SRIDQDNSSFDSLSPEPKSRFAMLDDVKILANGLLQLGHGLKDFVHKTKGQINDIFQKLNIFDQSFYDLSLQTSEIKEEEKELRRTTYKLQVKNEEVKNMSLELNSKLESLLEEKILLQQKVKYLEEQLTNLIQNQPETPEHPEVTSLKTFVEKQDNSIKDLLQTVEDQYKQLNQQHSQIKEIENQLRRTSIQEPTEISLSSKPRAPRTTPFLQLNEIRNVKHDGIPAECTTIYNRGEHTSGMYAIRPSNSQVFHVYCDVISGSPWTLIQHRIDGSQNFNETWENYKYGFGRLDGEFWLGLEKIYSIVKQSNYVLRIELEDWKDNKHYIEYSFYLGNHETNYTLHLVAITGNVPNAIPENKDLVFSTWDHKAKGHFNCPEGYSGGWWWHDECGENNLNGKYNKPRAKSKPERRRGLSWKSQNGRLYSIKSTKMLIHPTDSESFE
B2: human ANGPTL3/8 complex (other)
chain 1: SRIDQDNSSFDSLSPEPKSRFAMLDDVKILANGLLQLGHGLKDFVHKTKGQINDIFQKLNIFDQSFYDLSLQTSEIKEEEKELRRTTYKLQVKNEEVKNMSLELNSKLESLLEEKILLQQKVKYLEEQLTNLIQNQPETPEHPEVTSLKTFVEKQDNSIKDLLQTVEDQYKQLNQQHSQIKEIENQLRRTSIQEPTEISLSSKPRAPRTTPFLQLNEIRNVKHDGIPAECTTIYNRGEHTSGMYAIRPSNSQVFHVYCDVISGSPWTLIQHRIDGSQNFNETWENYKYGFGRLDGEFWLGLEKIYSIVKQSNYVLRIELEDWKDNKHYIEYSFYLGNHETNYTLHLVAITGNVPNAIPENKDLVFSTWDHKAKGHFNCPEGYSGGWWWHDECGENNLNGKYNKPRAKSKPERRRGLSWKSQNGRLYSIKSTKMLIHPTDSESFEAAADYKDDDDK
chain 2: APMGGPELAQHEELTLLFHGTLQLGQALNGVYRTTEGRLTKARNSLGLYGRTIELLGQEVSRGRDAAQELRASLLETQMEEDILQLQAEATAEVLGEVAQAQKVLRDSVQRLEVQLRSAWLGPAYREFEVLKAHADKQSHILWALTGHVQRQRREMVAQQHRLRQIQERLHTAALPA

Tests used:
[1] = molecular target: T1, LPL (lipoprotein lipase) on …; experiment: cell-based or functional assay
human ANGPTL8 [2] = molecular target: T2, human ANGPTL8; experiment: single point ELISA
Description: (§1) Single Point ELISA (SPE) Assay: Ab binding selectivity to either the ANGPTL3/8 complex, free ANGPTL3 or free ANGPTL8 is initially verified using standard ELISA assays in a single point format. […] IgG secreted into supernatants after expression in CHO cells are then captured to the assay plate. Biotinylated antigen is added at a concentration of 25 nM to allow for Ab/antigen binding. Ab/antigen complexes are detected after adding alkaline phosphatase-conjugated neutravidin and alkaline phosphatase substrate, and subsequent measurement of the optical density at 560 nm. Positive binding is determined by a signal greater than 3 fold over the non-binding background signal.

human ANGPTL3 [3] = molecular target: B1; experiment: single point ELISA
Description: as §1

mouse ANGPTL3/8 complex = molecular target: T3, mouse ANGPTL3/8 complex; experiment: cell-based or functional assay
human ANGPTL3/8 complex [4] = molecular target: B2; experiment: cell-based or functional assay
human ANGPTL3/8 complex [5] = molecular target: B2; experiment: single point ELISA; IgG captured by anti-human Fc; biotinylated antigen at 25 nM
Description: as §1

human ANGPTL8 [6] = molecular target: T2, human ANGPTL8; experiment: as above
Description: as §1

human ANGPTL3 [7] = molecular target: B1; experiment: as above
Description: as §1

cynomolgus LPL = molecular target: T4, cynomolgus LPL; experiment: cell-based or functional assay
human LPL = molecular target: T5, human LPL; experiment: cell-based or functional assay

| EC50 in the LPL assay (inhibition of LPL) [1] [nM] | binding result (human ANGPTL8 [2]) | binding result (human ANGPTL3 [3]) | OD at 560 nm (human ANGPTL3/8 complex [5]) [OD 560 nm] | OD at 560 nm (human ANGPTL8 [6]) [OD 560 nm] | OD at 560 nm (human ANGPTL3 [7]) [OD 560 nm] | Binder | also measured |
| --- | --- | --- | --- | --- | --- | --- | --- |
| 21.5 |  |  |  |  |  | B1 |  |
|  | no binding | no binding | 0.661 | 0.07 | 0.06 | Ab with LC variant having a D33T mutation (SEQ ID NO:23) and a HC of SEQ ID NO:6 (antibody, human IgG4 S228P, kappa, F234A L235A, V domains shown, also called D33T Ab) VH: QVTLKESGPTLVKPTQTLTLTCTFSGFSLSISGVGVGWIRQPPGKALEWLALIYRNDDKRYSPSLKSRLTITKDTSKNQVVLTLTNMDPVDTATYYCARTYSSGWYGNWFDPWGQGTLVTVSS VL: DIVMTQTPLSLPVTPGEPASISCRSSQSLLDSTDGNTYLDWYLQKPGQSPQLLIYMLSYRASGVPDRFSGSGSGTDFTLKISRVEAEDVGIYYCMQRIEFPLTFGGGTKVEIKR | % Max Derepression LPL (mouse ANGPTL3/8 complex): 114%; Ab EC50 (nM), derepression of LPL (mouse ANGPTL3/8 complex): 4.55 nM; % Max Derepression LPL (human ANGPTL3/8 complex [4]): 105%; Ab EC50 (nM), derepression of LPL (human ANGPTL3/8 complex [4]): 1.56 nM |
|  | no binding | no binding | 0.775 | 0.085 | 0.06 | Ab with LC variant having a M56T mutation (SEQ ID NO:24) and a HC of SEQ ID NO:6 (antibody, human IgG4 S228P, kappa, F234A L235A, V domains shown) VH: QVTLKESGPTLVKPTQTLTLTCTFSGFSLSISGVGVGWIRQPPGKALEWLALIYRNDDKRYSPSLKSRLTITKDTSKNQVVLTLTNMDPVDTATYYCARTYSSGWYGNWFDPWGQGTLVTVSS VL: DIVMTQTPLSLPVTPGEPASISCRSSQSLLDSDDGNTYLDWYLQKPGQSPQLLIYTLSYRASGVPDRFSGSGSGTDFTLKISRVEAEDVGIYYCMQRIEFPLTFGGGTKVEIKR |  |
|  |  |  |  |  |  | cynomolgus ANGPTL3/8 complex (other) chain 1: SRIDQDNSSFDSVSPEPKSRFAMLDDVKILANGLLQLGHGLKDFVHKTKGQINDIFQKLNIFDQSFYDLSLQTSEIKEEEKELRRTTYKLQVKNEEVKNMSLELNSKLESLLEEKILLQQKVKYLEEQLTNLIQNQPATPEHPEVTSLKSFVEKQDNSIKDLLQTVEEQYKQLNQQHSQIKEIENQLRMTNIQEPTEISLSSKPRAPRTTPFLQLNEIRNVKHDGIPADCTTIYNRGEHISGTYAIRPSNSQVFHVYCDVVSGSPWTLIQHRIDGSQNFNETWENYKYGFGRLDGEFWLGLEKIYSIVKQSNYVLRIELEDWKDNKHYIEYSFYLGNHETNYTLHVVKITGNVPNAIPENKDLVFSTWDHKAKGHFSCPESYSGGWWWHDECGENNLNGKYNKPRTKSKPERRRGLSWKSQNGRLYSIKSTKMLIHPTDSESFE chain 2: APVSSPELAEHEELTLLFHGTLQLGQALNGVYKTTEGRLTKARNSLGLYGRTVELLGQEVSRGRDAAQELRASLLETQMEEDILQLKAEAIAEVLEEVAQAQKVLQDSVRQLEVQLRSAWLGPAYQEFEVLKAHADKQSHILWALTGHVQRQRREMVAQQHRLRQIQERIHKAALPA | IC80 concentration (inhibition of LPL activity) (cynomolgus LPL): 0.38 nM |
| 0.54 |  |  |  |  |  | B2 | IC80 concentration (inhibition of LPL activity) (human LPL): 0.42 nM |
